From patent US20180155451A1 (published 2018)
Substitutions are numbered along the chain they refer to. Numbers in names are those of the source. Values belong to the binder of their own block, whether it stands above or below them.

Tests used:
[1] = target: T1, FcγRIIb (human, UniProt P31994 43-217); assay: SPR (Biacore), KD
T1 construct: extracellular domain; for crystallography expressed with Kifunesine and trimmed with Endo F1; also called FcgRIIb; FcgR2b; not shown: His tag attached to the C terminus
T1 sequence (looked up): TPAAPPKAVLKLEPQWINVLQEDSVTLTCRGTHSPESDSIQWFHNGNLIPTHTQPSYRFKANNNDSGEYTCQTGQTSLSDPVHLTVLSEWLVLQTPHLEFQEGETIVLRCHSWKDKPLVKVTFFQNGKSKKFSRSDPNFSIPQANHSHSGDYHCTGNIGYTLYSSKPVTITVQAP

[2] = target: T2, FcγRIa (human, UniProt P12314 16-292); assay: SPR (Biacore), relative binding
T2 construct: extracellular domain; also called FcgRIa; FcgRI; not shown: His tag attached to the C terminus
T2 sequence (P12314 16-292): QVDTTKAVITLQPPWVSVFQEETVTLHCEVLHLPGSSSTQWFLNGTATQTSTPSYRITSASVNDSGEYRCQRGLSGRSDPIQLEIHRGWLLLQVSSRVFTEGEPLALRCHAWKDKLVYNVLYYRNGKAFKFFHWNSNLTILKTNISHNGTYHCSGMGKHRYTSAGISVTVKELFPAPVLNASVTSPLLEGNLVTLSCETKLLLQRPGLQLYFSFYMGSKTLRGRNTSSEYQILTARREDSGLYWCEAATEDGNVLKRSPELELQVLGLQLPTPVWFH
Excerpt: The constructed expression vectors were each combined with GpH7-A5 and GpL16-k0 to express heterodimerized antibodies, or they were combined with GpL16-k0 alone but not with other H chains to express homodimerized antibodies. These antibodies were expressed and purified according to the method described in Reference Example 1. The resulting purified antibodies are the following: the heterodimerized antibodies GpH7-A5/GpH7-B12/GpL16-k0, GpH7-A5/GpH7-B13/GpL16-k0, GpH7-A5/GpH7-B14/GpL16-k0, and GpH7-A5/GpH7-B15/GpL16-k0; and homodimerized antibodies GpH7-B12/GpL16-k0, GpH7-B13/GpL16-k0, GpH7-B14/GpL16-k0, and GpH7-B15/GpL16-k0. The prepared antibodies were used to assess the binding activity to each FcγR by the method described in Reference Example 2.
Analysis of interaction between objective antibody and the FcγR was carried out using Biacore T100 (GE Healthcare). HBS-EP+ (GE Healthcare) was used as the running buffer, and the measurement temperature was set to 25° C. Chips produced by immobilizing the antigen peptide by the amine coupling method to a Series S Sencor Chip CM5 (GE Healthcare), or alternatively, chips produced by allowing preliminarily biotinylated antigen peptides to interact with and immobilize onto a Series S Sensor Chip SA (certified) (GE Healthcare) were used. Antibodies of interest were captured onto an antigen peptide-immobilized chip, and allowed to interact to each FcγR diluted with running buffer. To regenerate and repeatedly use the chip, the antibodies captured on the chip were washed off by reacting 10 mM glycine-HCl, pH 1.5.

[3] = target: T3, FcγRIIIa (human, UniProt P08637 17-208); assay: SPR (Biacore), KD
T3 construct: extracellular domain; not shown: His tag attached to the C terminus
T3 sequence (P08637 17-208): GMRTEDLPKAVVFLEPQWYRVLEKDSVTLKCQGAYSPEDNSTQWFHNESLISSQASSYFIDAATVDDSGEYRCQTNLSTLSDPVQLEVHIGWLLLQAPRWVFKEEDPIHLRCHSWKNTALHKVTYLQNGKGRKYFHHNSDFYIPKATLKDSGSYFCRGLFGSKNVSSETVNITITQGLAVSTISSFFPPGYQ

[4] = target: T4, FcgRIa (human, UniProt P12314 16-292); assay: SPR (Biacore 4000), antibody captured on chip, FcgR as analyte; kd below the limit 5e-5 /s
T4 construct: extracellular domain; also called FcγRIa; FcγRI; not shown: C-terminal His tag
T4 sequence (P12314 16-292): as the sequence (P12314 16-292) above
Protocol: (§1) The variants described above were assessed for their binding to FcγR according to the method described in Reference Example 8.
(§2) Analysis of interaction between obj ective antibody and the FcγR was carried out using Biacore T100 (GE Healthcare), Biacore T200, Biacore A100, and Biacore 4000. HBS-EP+ (GE Healthcare) was used as the running buffer, and the measurement temperature was set to 25° C. Chips produced by immobilizing the antigen peptide by the amine coupling method to a Series S sensor Chip CM5 (GE Healthcare), chips produced by allowing preliminarily biotinylated antigen peptides to interact with and immobilize onto a Series S Sensor Chip SA (certified) (GE Healthcare), chips produced by immobilizing Protein L (ACTIGEN, BioVision) to Series S Sencor Chip CM5 (GE Healthcare), or chips produced by immobilizing Protein A/G (Thermo Scientific) to Series S Sencor Chip CM5 (GE Healthcare) were used. Antibodies of interest were captured onto these chips, and allowed to interact to each FcγR diluted with running buffer. To regenerate and repeatedly use the chip, the antibodies captured onto the chip were washed off by reacting 10 mM glycine-HCl, pH 1.5.

[5] = target: T5, FcgRIIaH (human, UniProt P12318 34-217); assay: SPR (Biacore); KD of H240-Kn120/H240-Hl068/L73-k0 divided by KD of the sample
T5 construct: extracellular domain; H131 allotype; also called FcγRIIa H; FcgRIIa type H; not shown: C-terminal His tag
T5 sequence (looked up): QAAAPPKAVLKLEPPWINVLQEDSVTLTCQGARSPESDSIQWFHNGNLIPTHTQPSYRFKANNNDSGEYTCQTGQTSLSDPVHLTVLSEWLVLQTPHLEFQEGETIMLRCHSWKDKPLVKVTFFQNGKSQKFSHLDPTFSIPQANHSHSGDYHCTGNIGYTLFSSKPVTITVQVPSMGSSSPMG
Protocol: as §1, §2

[6] = target: T6, FcgRIIaR (human, UniProt P12318 34-217); assay: as above
T6 construct: extracellular domain; R131 allotype; also called FcγRIIa R; FcgRIIa type R; not shown: C-terminal His tag
T6 sequence (looked up): T5 sequence (looked up) with H134R
Protocol: as §1, §2

[7] = target: T7, FcgRIIb (human, UniProt P31994 43-217); assay: as above
T7 construct: extracellular domain; also called FcγRIIb; CD32B; not shown: C-terminal His tag
T7 sequence (looked up): T1 sequence (looked up)
Protocol: as §1, §2

[8] = target: T8, FcgRIIIaV (human, UniProt P08637 17-208); assay: as above
T8 construct: extracellular domain; V158 allotype; also called FcγRIIIa V; not shown: C-terminal His tag
T8 sequence (P08637 17-208 F176V limits assumed): as the sequence (P08637 17-208) above, with F160V counted along it
Protocol: as §1, §2

[9] = target: T9, FcgRIIIaF (human, UniProt P08637 17-208); assay: as above
T9 construct: extracellular domain; F158 allotype; also called FcγRIIIa F; not shown: C-terminal His tag
T9 sequence (P08637 17-208): as the sequence (P08637 17-208) above
Protocol: as §1, §2

[10] = target: T5, FcgRIIaH; assay: SPR (Biacore), antibody captured on chip, FcgR as analyte
Protocol: as §1, §2

[11] = target: T6, FcgRIIaR; assay: as above
Protocol: as §1, §2

[12] = target: T7, FcgRIIb; assay: as above
Protocol: as §1, §2

[13] = target: T8, FcgRIIIaV; assay: as above
Protocol: as §1, §2

[14] = target: T9, FcgRIIIaF; assay: as above
Protocol: as §1, §2

B1: H240-Kn120/H240-Hl068/L73-k0 (antibody, human IgG1, kappa)
heavy 1: QDQLVQSGAEVKKPGASVKVSCKASGFNIKDTYIQWVRQAPGQGLEWMGRIDPLRKQTKYREKFEGRVTITADTSTNTAYMELSSLRSEDTAVYYCVRSGREFDYWGQGTLVTVSSASTKGPSVFPLAPSSKSTSGGTAALGCLVKDYFPEPVTVSWNSGALTSGVHTFPAVLQSSGLYSLSSVVTVPSSSLGTQTYICNVNHKPSNTKVDKKVEPKSCDKTHTCPPCPAPEYYWGPMVFLFPPKPKDTLMISRTPEVTCVVVDVSDEDPEVKFNWYVDGVEVHNAKTKPREEQYNATYRVVSVLTVLHQDWLNGKEYKCKVSNKDLPAPIEKTISKAKGQPREPQVCTLPPSRDELTKNQVSLWCLVKGFYPSDIAVEWESNGQPENNYKTTPPVLDSDGSFFLYSKLTVDKSRWQQGNVFSCSVMHEALHNHYTQKSLSLSP
heavy 2: QDQLVQSGAEVKKPGASVKVSCKASGFNIKDTYIQWVRQAPGQGLEWMGRIDPLRKQTKYREKFEGRVTITADTSTNTAYMELSSLRSEDTAVYYCVRSGREFDYWGQGTLVTVSSASTKGPSVFPLAPSSKSTSGGTAALGCLVKDYFPEPVTVSWNSGALTSGVHTFPAVLQSSGLYSLSSVVTVPSSSLGTQTYICNVNHKPSNTKVDKKVEPKSCDKTHTCPPCPAPELLGGPSVFLFPPKPKDTLMISRTPEVTCVVVDVSHEEPEVKFNWYVDGVEVHNAKTKPREEQYNSTYRVVSVLTVLHQDWLNGKEYKCKVSNDALPKPIEETISKAKGQPREPQVYTLPPSRCELTKNQVSLSCAVKGFYPSDIAVEWESNGQPENNYKTTPPVLDSDGSFFLVSKLTVDKSRWQQGNVFSCSVMHEALHNHYTQKSLSLSP
light: DIQMTQSPSSLSASVGDRVTITCRASQDIHKYIAWYQQKPGQAPRLLIQYTSTLQPGVPSRFSGSGSGTDYTFTISSLQPEDIATYYCLQYEQLRTFGGGTKVEIKRTVAAPSVFIFPPSDEQLKSGTASVVCLLNNFYPREAKVQWKVDNALQSGNSQESVTEQDSKDSTYSLSSTLTLSKADYEKHKVYACEVTHQGLSSPVTKSFNRGEC
notes: S239M added to H240-Kn067
- fold increase of binding activity over native IgG1 [1]: ~50 fold

B2: GpH7-B14/GpL16-k0 (antibody, human IgG1, kappa)
heavy: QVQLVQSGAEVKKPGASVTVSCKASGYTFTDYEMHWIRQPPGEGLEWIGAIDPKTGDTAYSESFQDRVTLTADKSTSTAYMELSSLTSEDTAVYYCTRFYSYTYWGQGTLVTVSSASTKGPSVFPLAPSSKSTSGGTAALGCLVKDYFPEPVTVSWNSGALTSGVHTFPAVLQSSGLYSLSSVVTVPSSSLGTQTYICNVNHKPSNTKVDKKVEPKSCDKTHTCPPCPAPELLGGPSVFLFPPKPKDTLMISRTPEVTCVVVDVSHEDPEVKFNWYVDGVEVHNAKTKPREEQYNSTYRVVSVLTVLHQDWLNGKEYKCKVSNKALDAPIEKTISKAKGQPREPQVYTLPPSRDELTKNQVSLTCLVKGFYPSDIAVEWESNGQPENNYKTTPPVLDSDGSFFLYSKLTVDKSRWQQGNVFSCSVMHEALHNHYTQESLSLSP
light: DIVMTQSPLSLPVTPGEPASISCQASESLVHSNRNTYLHWYLQKPGQSPQLLIYKVSNRFSGVPDRFSGSGSGTDFTLKISRVEAEDVGVYYCSQNTHVPPTFGQGTKVEIERTVAAPSVFIFPPSDEQLKSGTASVVCLLNNFYPREAKVQWKVDNALQSGNSQESVTEQDSKDSTYSLSSTLTLSKADYEKHKVYACEVTHQGLSSPVTKSFNRGEC
notes: P329D in both H chains
- binding activity relative to GpH7-A5/GpH7-B3/GpL16-k0 [2]: ≤ 0.2 fraction of GpH7-A5/GpH7-B3/GpL16-k0

B6: H240-Kn192/H240-Hl204/L73-k0 (antibody, human IgG1, kappa)
heavy 1: B1 heavy 1 with Y234N, E293K
heavy 2: B1 heavy 2 with G235T, I331E
light: B1 light
notes: Heterodimerized anti-epiregulin antibody
- Kd [4]: < 0.019 nM
- Relative KD [5]: 1
- Relative KD [6]: 1.1
- Relative KD [7]: 0.5
- Relative KD [8]: 0.2
- Relative KD [9]: 0.2
- Kd [10]: 42 nM
- Kd [11]: 19 nM
- Kd [12]: 290 nM
- Kd [13]: 2.2 nM
- Kd [14]: 12 nM

B7: H240-Kn193/H240-Hl204/L73-k0 (antibody, human IgG1, kappa)
heavy 1: B1 heavy 1 with Y234N, E293R
heavy 2: B1 heavy 2 with G235T, I331E
light: B1 light
notes: as for B6
- Kd [4]: < 0.024 nM
- Relative KD [5]: 1.2
- Relative KD [6]: 1.3
- Relative KD [7]: 0.5
- Relative KD [8]: 0.2
- Relative KD [9]: 0.2
- Kd [10]: 35 nM
- Kd [11]: 16 nM
- Kd [12]: 290 nM
- Kd [13]: 1.8 nM
- Kd [14]: 11 nM

The next lines start with the values.

- binding activity relative to GpH7-A5/GpH7-B3/GpL16-k0 [2]: ≤ 0.2 fraction of GpH7-A5/GpH7-B3/GpL16-k0
B3: GpH7-B15/GpL16-k0 (antibody, human IgG1, kappa)
heavy: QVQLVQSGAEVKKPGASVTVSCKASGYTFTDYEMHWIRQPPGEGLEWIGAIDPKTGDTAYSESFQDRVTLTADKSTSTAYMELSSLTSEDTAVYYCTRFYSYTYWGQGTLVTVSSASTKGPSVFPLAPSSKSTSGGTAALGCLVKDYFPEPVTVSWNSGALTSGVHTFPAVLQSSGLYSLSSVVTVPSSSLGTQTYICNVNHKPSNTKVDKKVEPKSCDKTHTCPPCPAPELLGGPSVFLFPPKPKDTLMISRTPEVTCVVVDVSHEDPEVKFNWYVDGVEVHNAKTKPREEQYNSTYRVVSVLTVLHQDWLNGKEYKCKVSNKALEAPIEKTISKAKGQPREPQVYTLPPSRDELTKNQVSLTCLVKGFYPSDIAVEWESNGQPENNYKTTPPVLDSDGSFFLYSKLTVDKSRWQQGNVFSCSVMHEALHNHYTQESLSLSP
light: B2 light
notes: P329E in both H chains

- fold decrease of binding activity against GpH7-A57/GpH7-B78/GpL16-k0 [3]: 1.8 fold
B4: GpH7-A53/GpH7-B78/GpL16-k0 (antibody, human IgG1, kappa)
heavy 1: QVQLVQSGAEVKKPGASVTVSCKASGYTFTDYEMHWIRQPPGEGLEWIGAIDPKTGDTAYSESFQDRVTLTADKSTSTAYMELSSLTSEDTAVYYCTRFYSYTYWGQGTLVTVSSASTKGPSVFPLAPSSKSTSGGTAALGCLVKDYFPEPVTVSWNSGALTSGVHTFPAVLQSSGLYSLSSVVTVPSSSLGTQTYICNVNHKPSNTKVDKKVEPKSCDKTHTCPPCPAPELLGGPDVFLFPPKPKDTLMISRTPEVTCVVVDVSHEDPEVKFNWYVDGVEVHNAKTKPREEQYNSTYRVVSVLTVLHQDWLNGKEYKCKVSNKALPAPIEKTISKAKGQPREPQVYTLPPSRKELTKNQVSLTCLVKGFYPSDIAVEWESNGQPENNYKTTPPVLDSDGSFFLYSKLTVDKSRWQQGNVFSCSVMHEALHNRYTQKSLSLSP
heavy 2: B4 heavy 1 with A328L, I330E, K354D, R433H, K437E
light: B2 light
notes: S239D in one H chain, S239D/A330L/I332E in the other

- fold enhancement of binding against GpH7-A5/GpH7-B78/GpL16-k0 [3]: ≥ 10 fold
B5: GpH7-TA7/GpH7-B78/GpL16-k0 (antibody, human IgG1, kappa)
heavy 1: B4 heavy 1 with L232Y, G234W, D237S, S296A
heavy 2: B4 heavy 1 with A328L, I330E, K354D, R433H, K437E
light: B2 light
notes: L234Y/G236W/S298A in one H chain, S239D/A330L/I332E in the other
